Measured values published in patent US20030148956A1 (PROCTER AND GAMBLE, published 2003).
Ends that are not written are not given here.

Key:
CRF2R = target: T1, CRF2R; assay: cell-based or functional assay
T1 sequence (Q13324 whole entry, species assumed, looked up): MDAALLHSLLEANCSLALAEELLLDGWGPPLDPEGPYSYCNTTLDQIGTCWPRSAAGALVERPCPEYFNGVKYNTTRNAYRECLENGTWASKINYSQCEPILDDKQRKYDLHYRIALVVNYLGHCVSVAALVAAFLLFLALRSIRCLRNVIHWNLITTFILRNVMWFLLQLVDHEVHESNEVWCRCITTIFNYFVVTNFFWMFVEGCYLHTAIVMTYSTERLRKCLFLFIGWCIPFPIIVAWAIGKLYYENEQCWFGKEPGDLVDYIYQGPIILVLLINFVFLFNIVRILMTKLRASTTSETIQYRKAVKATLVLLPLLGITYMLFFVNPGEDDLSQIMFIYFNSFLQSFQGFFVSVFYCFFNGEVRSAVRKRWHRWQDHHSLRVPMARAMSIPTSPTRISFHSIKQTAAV

CRF1R = assay: cell-based or functional assay

Row | Binder | CRF2R EC50 (CRF2R) [nM] | CRF2R Emax (CRF2R) [%] | CRF1R EC50 (CRF1R) [nM] | CRF1R Emax (CRF1R) [%]
1 | Ac-IVLSLDVPIGLLQILLEQEKARAAREQATTNARILARV-NH2 [SEQ ID NO 3] | 12.1 |  |  | 
2 | IVLSLDVPIGLLQILLEQEKARAAREQATTNARILARV-NH2 [SEQ ID NO 121] | 5.67 |  |  | 
3 | ZGPPISIDLSIGLLRKMIEIEKQEKEKQQAANNRLLLDTI (C-terminal amide) [SEQ ID NO 25] | 81 | 81.9 | 677 | 92.3
4 | ZGPPISIDLPEYLLRKMIEIEKQEKEKQQAANNRLLLDTI (C-terminal amide) [SEQ ID NO 48] | 100 | 14 | 1000 | 21
5 | ZGPPISIDLPIPLLRKMIEIEKQEKEKQQAANNRLLLDTI (C-terminal amide) [SEQ ID NO 26] | 91.8 | 86 | > 1000 | 16
6 | ZGPPISIDLPTSLLRKMIEIEKQEKEKQQAANNRLLLDTI (C-terminal amide) [SEQ ID NO 43] | > 100 | 67 | > 1000 | 10
7 | ZGPPISIDLPIKLLRKMIEIEKQEKEKQQAANNRLLLDTI (C-terminal amide) [SEQ ID NO 34] | > 100 | 45 | > 1000 | 11
8 | ZGPPISIDLSLELLRKMIEIEKQEKEKQQAANNALLLATI (C-terminal amide) [SEQ ID NO 30] | 18.7 | 85.5 | 100 | 100
9 | ZGPPISIDLPDYLLRKMIEIEKQEKEKQQAANNRLLLDTI (C-terminal amide) [SEQ ID NO 54] | 100 | 11 | 1000 | 10
10 | ZGPPISIDLPTILLRKMIEIEKQEKEKQQAANNRLLLDTI (C-terminal amide) [SEQ ID NO 50] | 19 | 94 | > 1000 | 42
11 | ZGPPISIDLPQVLLRKMIEIEKQEKEKQQAANNRLLLDTI (C-terminal amide) [SEQ ID NO 197] | 48.1 | 94 |  | 
12 | ZGPPISIDLPTPLLRKMIEIEKQEKEKQQAANNRLLLDTI (C-terminal amide) [SEQ ID NO 52] | > 100 | 10 | > 1000 | 13
13 | ZGPPISIDLPTLLLRKMIEIEKQEKEKQQAANNRLLLDTI (C-terminal amide) [SEQ ID NO 51] | 20.6 | 100 | > 1000 | 48
14 | ZGPPISIDLPSYLLRKMIEIEKQEKEKQQAANNRLLLDTI (C-terminal amide) [SEQ ID NO 56] | 50.4 | 87 | > 100 | 14
15 | ZGPPISIDLPIRLLRKMIEIEKQEKEKQQAANNRLLLDTI (C-terminal amide) [SEQ ID NO 38] | 71.9 | 91 | > 1000 | 11
16 | ZGPPISIDLPTDLLRKMIEIEKQEKEKQQAANNRLLLDTI (C-terminal amide) [SEQ ID NO 49] | > 100 | 37 | > 1000 | 15
17 | ZGPPISIDLPQYLLRKMIEIEKQEKEKQQAANNRLLLDTI (C-terminal amide) [SEQ ID NO 27] | 10.7 | 96 | 325 | 100
18 | ZGPPISIDLPTFLLRKMIEIEKQEKEKQQAANNRLLLDTI (C-terminal amide) [SEQ ID NO 44] | 19.1 | 87 | 944 | 64
19 | ZGPPISIDLPVYLLRKMIEIEKQEKEKQQAANNRLLLDTI (C-terminal amide) [SEQ ID NO 39] | 58.2 | 94 | 1000 | 63

Row | Binder | CRF2R EC50 (CRF2R) [nM] | CRF2R Emax (CRF2R) [%] | CRF1R EC50 (CRF1R) [nM] | CRF1R Emax (CRF1R) [%]
20 | ZGPPISIDLPTTLLRKMIEIEKQEKEKQQAANNRLLLDTI (C-terminal amide) [SEQ ID NO 42] | > 100 | 88 | > 1000 | 10
21 | ZGPPISIDLPYYLLRKMIEIEKQEKEKQQAANNRLLLDTI (C-terminal amide) [SEQ ID NO 40] | 6.95 | 93 | 102 | 99
22 | ZGPPISIDLPILLLRKMIEIEKQEKEKQQAANNRLLLDTI (C-terminal amide) [SEQ ID NO 35] | 15.6 | 88 | > 1000 | 74
23 | ZGPPISIDLPINLLRKMIEIEKQEKEKQQAANNRLLLDTI (C-terminal amide) [SEQ ID NO 37] | > 100 | 51 | > 1000 | 5
24 | ZGPPISIDLPIVLLRKMIEIEKQEKEKQQAANNRLLLDTI (C-terminal amide) [SEQ ID NO 31] | 30.8 | 100 | > 1000 | 18
25 | ZGPPISIDLPIFLLRKMIEIEKQEKEKQQAANNRLLLDTI (C-terminal amide) [SEQ ID NO 29] | 16 | 100 | > 1000 | 79
26 | ZGPPISIDLPAYLLRKMIEIEKQEKEKQQAANNRLLLDTI (C-terminal amide) [SEQ ID NO 32] | 20.2 | 98 | 606 | 94
27 | ZGPPISIDLPTVLLRKMIEIEKQEKEKQQAANNRLLLDTI (C-terminal amide) [SEQ ID NO 46] | > 100 | 100 | > 1000 | 17
28 | ZGPPISIDLPWYLLRKMIEIEKQEKEKQQAANNRLLLDTI (C-terminal amide) [SEQ ID NO 55] | 7.95 | 95 | 11.6 | 92
29 | ZGPPISIDLPPYLLRKMIEIEKQEKEKQQAANNRLLLDTI (C-terminal amide) [SEQ ID NO 57] | > 100 | 46 | > 100 | 12
30 | ZGPPISIDLPIILLRKMIEIEKQEKEKQQAANNRLLLDTI (C-terminal amide) [SEQ ID NO 36] | 14.8 | 73 | > 1000 | 33
31 | ZGPPISIDLPTKLLRKMIEIEKQEKEKQQAANNRLLLDTI (C-terminal amide) [SEQ ID NO 45] | > 100 | 44 | > 1000 | 7
32 | ZGPPISIDLPIDLLRKMIEIEKQEKEKQQAANNRLLLDTI (C-terminal amide) [SEQ ID NO 28] | 100 | 15 | > 1000 | 2
33 | ZGPPISIDLPTWLLRKMIEIEKQEKEKQQAANNRLLLDTI (C-terminal amide) [SEQ ID NO 41] | 18.3 | 100 | > 1000 | 43
34 | ZGPPISIDLPIALLRKMIEIEKQEKEKQQAANNRLLLDTI (C-terminal amide) [SEQ ID NO 47] | > 100 | 66 | 1000 | 12
35 | ZGPPISIDLPQQLLRKMIEIEKQEKEKQQAANNRLLLDTI (C-terminal amide) [SEQ ID NO 198] | 29.9 | 100 |  | 
36 | ZGPPISIDLPISLLRKMIEIEKQEKEKQQAANNRLLLDTI (C-terminal amide) [SEQ ID NO 53] | > 100 | 95 | > 1000 | 19
37 | SQEPPISLDLPLELLREVLEMTKADQLAQQAHSNRKLLDIA-NH2 [SEQ ID NO 89] | 100 | 12.7 |  | 
38 | Ac-IVLSLDVPIGLLQILLEQEKARAAREQATTNARILARV-NH2 (not fully specified) [SEQ ID NO 107] | 12.1 |  |  | 
